Experimental data: patent US20230374526A1, “FORSKOLIN-INDUCIBLE PROMOTERS AND HYPOXIA-INDUCIBLE PROMOTERS” (ASKLEPIOS BIOPHARMACEUTICAL, INC., priority 2020, published 2023)

Assays:
CHO-GS cells = experiment: Luciferase expression from hypoxia-inducible promoter, transient transfection, normoxia vs 24 h hypoxia; format: cell-based, chinese hamster; conditions: CHO_GS suspension cell line
Description: 40 ml of cells were grown in a 250 ml vented Erlenmeyer flask (Sigma-Aldrich CLS431144) at 37° C., 20% O2, 8% CO2 with agitation at 100 rpm. Cells were seeded as at 300,000 cells/ml.
One day before transfection, the cells were counted using a haemocytometer and split to 500,000 cells/ml.
On the day of transfection, the cells are seeded to 1,000,000 cells/ml in 500 μl of appropriate medium (Thermofisher, CD-CHO 10743029) in a 24 well plate. 0.625 μg of DNA per well was then added to 10 μl of OptiMem medium (Thermofisher; 11058021) and incubated for 5 minutes at room temperature.
Concurrently, 0.625 μl of Freestyle Max reagent (Thermofisher, 16447100) was made up to 10 μl by addition of OptiMem and incubated for 5 minutes at room temperature. After this incubation, both mixes were added to the same tube and incubated at room temperature for 25-30 minutes. The DNA/Max reagent mix (20 μl/well) was then added directly to the cells and the cells incubated at 37 C, 8% CO2 with agitation at 100 rpm. […]
After transfection the cells were incubated for 24 hrs in normoxic conditions (20% oxygen). Induction of the promoters was assessed by using luciferase activity after 24 hrs in normoxia or hypoxia (5% oxygen, 10% carbon dioxide and 85% nitrogen). […] Luciferase activity was measured as described above.

CHO-GSK1SV cell line = experiment: SEAP expression from hypoxia-inducible promoter in stably integrated cell line, normoxia vs 24 h hypoxia; format: cell-based, chinese hamster; conditions: normalised to cell number
Description: Cell suspensions of 6×10^5 cells per mL are incubated on an orbital shaker set at 8% CO2, 20% O2, 37° C., 85% relative humidity and 140 rpm overnight. 2.86×10^7 cells were centrifuged at 200 g for 3 minutes. Media is then aspirated and cell pellet resuspended in 2 mL fresh CD-CHO media to obtain a concentration of 1.43×10^7 cells per mL. 700 μL of cell suspension was added to each of two electroporation cuvettes each containing […] of linearised DNA in 100 μL of sterile TE buffer (Thermofisher, 12090015). Each cuvette was electroporated, delivering a single pulse of 300V, […] with resistance to infinity. Immediately after delivery of pulse electroplated cells were transferred to Erlenmeyer 125 mL flask containing 20 mL of CD-CHO media pre-warmed to 37° C. […] Cells are transferred to fresh CD-CHO media 24 hours after transfection and cell cultures monitored and given fresh CD-CHO media every 2-4 days. […]
Stably transfected CHO-GS cells were seeded at 500,000 cells/ml and allowed to grow for 24 hrs, at this point the cells were counted and placed under hypoxic conditions as previously described. After 24 hrs, the cell numbers and the expression of SEAP was measured.
SEAP Reporter Gene Assay, chemiluminescent (Roche, CAT #11 779 842 001) was used to measured SEAP activity as per manufacturers protocol. […] The signal is then read at 477 nm and compared to a calibration curve. […]

HEK293-T cells = experiment: Luciferase expression from hypoxia-inducible promoter, normoxia vs 24 h hypoxia; format: cell-based, human
Description: HEK293-T are seeded at a density of 20%. Once they reached a confluence between 60 and 80%, the media is changed with DMEM (#21885-025—Thermo Scientific) supplemented with 10% FBS (Gibco, 26140). After 3 hours, the cells were transfected by a transfection mix. The transfection mix is prepared by adding DNA (2 μg per 6 well plate) and PEI 25 kDA (#23966-1—Polyscience) in a ratio of 1:3 in sterile DPBS (#14190169—ThermoFisher Scientific). After mixing, the transfection mix is incubated at room temperature for 30 minutes and then added directly to the cells. After 16 to 18 h post transfection, the media is changed to DMEM+2% FBS. […]
After transfection the cells were incubated for 24 hrs in normoxic conditions (20% oxygen). Induction of the promoters was assessed by using luciferase activity after 24 hrs in normoxia or hypoxia (5% oxygen, 10% carbon dioxide and 85% nitrogen). […]
Luciferase activity was measured using LARII (Dual Luciferase Reporter 1000 assay system, Promega, E1980).
Media was removed from the cells at the respective time point (0, 3, 5, 24 hrs after induction). […] 10 μl of supernatant was pipetted into white 96-well plate and luminescence measured by addition of 50 μl of LARII substrate.
β-galactosidase activity was measured as per manufacturer's instructions (Mammalian βGalactosidase Assay Kit, 75707/75710, Thermo Scientific) using 25 μl of lysate. […]

B1: RTV-015: hypoxia-inducible promoter, SEQ ID NO: 129; 5 HRE1 elements spaced by 40 bp spacers, synthetic minimal promoter MP1 (nucleic acid)
DNA: ACGTGCGATGATGCGTAGCTAGTAGTGATGATGCGTAGCTAGTAGTACGTGCGATGATGCGTAGCTAGTAGTGATGATGCGTAGCTAGTAGTACGTGCGATGATGCGTAGCTAGTAGTGATGATGCGTAGCTAGTAGTACGTGCGATGATGCGTAGCTAGTAGTGATGATGCGTAGCTAGTAGTACGTGCTTGGTACCATCCGGGCCGGCCGCTTAAGCGACGCCTATAAAAAATAGGTTGCATGCTAGGCCTAGCGCTGCCAGTCCATCTTCGCTAGCCTGTGCTGCGTCAGTCCAGCGCTGCGCTGCGTAACGGCCGCC
modifications: Synp-RTV-015
notes: 5 HRE1 elements spaced by 40 bp spacers, synthetic minimal promoter MP1
- Luciferase expression after 24 hours in hypoxia (vs normoxia) (CHO-GS cells; 5% oxygen): induced
- Luciferase activity in normoxia (CHO-GS cells; 20% oxygen): almost no luciferase activity
- SEAP activity in normoxia (CHO-GSK1SV cell line): almost no SEAP activity
- SEAP expression after 24 hours in hypoxia (vs normoxia) (CHO-GSK1SV cell line): induced
- Luciferase expression after 24 hours in hypoxia (vs normoxia) (HEK293-T cells; 5% oxygen): induced
- Luciferase activity in normoxia (HEK293-T cells; 20% oxygen): almost no luciferase activity
